Results from IntAct's records for PubMed 22020124.

B1: Centrosomal P4.1-associated protein (Homo sapiens), Q9HC77 (parent)
chain: MFLMPTSSELNSGQNFLTQWMTNPSRAGVILNRGFPILEADKEKRAAVDISTSFPIKGTHFSDSFSFINEEDSLLEEQKLESNNPYKPQSDKSETHTAFPCIKKGPQVAACHSAPGHQEENKNDFIPDLASEFKEGAYKDPLFKKLEQLKEVQQKKQEQLKRQQLEQLQRLMEEQEKLLTMVSGQCTLPGLSLLPDDQSQKHRSPGNTTTGERATCCFPSYVYPDPTQEETYPSNILSHEQSNFCRTAHGDFVLTSKRASPNLFSEAQYQEAPVEKNNLKEENRNHPTGESILCWEKVTEQIQEANDKNLQKHDDSSEVANIEERPIKAAIGERKQTFEDYLEEQIQLEEQELKQKQLKEAEGPLPIKAKPKQPFLKRGEGLARFTNAKSKFQKGKESKLVTNQSTSEDQPLFKMDRQQLQRKTALKNKELCADNPILKKDSKARTKSGSVTLSQKPKMLKCSNRKSLSPSGLKIQTGKKCDGQFRDQIKFENKVTSNNKENVTECPKPCDTGCTGWNKTQGKDRLPLSTGPASRLAAKSPIRETMKESESSLDVSLQKKLETWEREKEKENLELDEFLFLEQAADEISFSSNSSFVLKILERDQQICKGHRMSSTPVKAVPQKTNPADPISHCNRSEDLDHTAREKESECEVAPKQLHSLSSADELREQPCKIRKAVQKSTSENQTEWNARDDEGVPNSDSSTDSEEQLDVTIKPSTEDRERGISSREDSPQVCDDKGPFKDTRTQEDKRRDVDLDLSDKDYSSDESIMESIKHKVSEPSRSSSLSLSKMDFDDERTWTDLEENLCNHDVVLGNESTYGTPQTCYPNNEIGILDKTIKRKIAPVKRGEDLSKSRRSRSPPTSELMMKFFPSLKPKPKSDSHLGNELKLNISQDQPPGDNARSQVLREKIIELETEIEKFKAENASLAKLRIERESALEKLRKEIADFEQQKAKELARIEEFKKEEMRKLQKERKVFEKYTTAARTFPDKKEREEIQTLKQQIADLREDLKRKETKWSSTHSRLRSQIQMLVRENTDLREEIKVMERFRLDAWKRAEAIESSLEVEKKDKLANTSVRFQNSQISSGTQVEKYKKNYLPMQGNPPRRSKSAPPRDLGNLDKGQAASPREPLEPLNFPDPEYKEEEEDQDIQGEISHPDGKVEKVYKNGCRVILFPNGTRKEVSADGKTITVTFFNGDVKQVMPDQRVIYYYAAAQTTHTTYPEGLEVLHFSSGQIEKHYPDGRKEITFPDQTVKNLFPDGQEESIFPDGTIVRVQRDGNKLIEFNNGQRELHTAQFKRREYPDGTVKTVYANGHQETKYRSGRIRVKDKEGNVLMDTEL
partner: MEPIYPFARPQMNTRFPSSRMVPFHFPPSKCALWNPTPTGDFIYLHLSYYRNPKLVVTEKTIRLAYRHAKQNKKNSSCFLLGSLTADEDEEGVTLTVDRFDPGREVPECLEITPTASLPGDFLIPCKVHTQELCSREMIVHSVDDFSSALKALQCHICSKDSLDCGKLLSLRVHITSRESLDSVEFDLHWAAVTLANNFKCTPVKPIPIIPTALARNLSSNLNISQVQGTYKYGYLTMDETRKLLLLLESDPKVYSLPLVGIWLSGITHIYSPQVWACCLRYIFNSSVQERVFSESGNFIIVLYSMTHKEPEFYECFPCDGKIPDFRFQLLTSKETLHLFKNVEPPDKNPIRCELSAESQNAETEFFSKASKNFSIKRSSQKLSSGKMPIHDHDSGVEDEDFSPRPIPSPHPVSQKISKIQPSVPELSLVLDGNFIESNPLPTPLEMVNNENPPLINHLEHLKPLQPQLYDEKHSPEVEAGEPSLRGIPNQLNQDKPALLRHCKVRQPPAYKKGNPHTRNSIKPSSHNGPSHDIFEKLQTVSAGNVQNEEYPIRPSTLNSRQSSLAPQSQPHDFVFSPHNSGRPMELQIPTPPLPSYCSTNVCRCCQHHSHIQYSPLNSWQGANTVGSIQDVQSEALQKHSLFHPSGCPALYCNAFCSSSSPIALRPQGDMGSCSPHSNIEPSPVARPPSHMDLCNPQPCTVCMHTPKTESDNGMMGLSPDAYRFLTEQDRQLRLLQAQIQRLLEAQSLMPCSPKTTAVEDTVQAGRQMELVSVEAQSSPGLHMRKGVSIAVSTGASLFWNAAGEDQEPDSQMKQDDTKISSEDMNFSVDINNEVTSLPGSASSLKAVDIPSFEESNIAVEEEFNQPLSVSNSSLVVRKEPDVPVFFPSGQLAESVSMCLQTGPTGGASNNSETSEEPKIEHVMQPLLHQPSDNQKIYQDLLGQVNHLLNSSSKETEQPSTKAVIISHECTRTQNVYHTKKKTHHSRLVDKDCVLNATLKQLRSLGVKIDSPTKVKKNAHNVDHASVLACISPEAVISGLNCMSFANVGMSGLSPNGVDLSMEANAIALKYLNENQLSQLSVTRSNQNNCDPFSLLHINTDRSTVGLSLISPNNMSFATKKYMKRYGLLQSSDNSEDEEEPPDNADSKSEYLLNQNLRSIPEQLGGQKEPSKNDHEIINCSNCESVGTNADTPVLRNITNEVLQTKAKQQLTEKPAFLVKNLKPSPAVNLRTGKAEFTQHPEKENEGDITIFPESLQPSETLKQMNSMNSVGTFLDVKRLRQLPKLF

Variants of: B1
Conditions: with stil_human STIL

Row | effect of a mutation on the interaction | Variant
1 | decreasing interaction | E1235V

Variants of: B1
Conditions: with stil_human STIL
Remark: another data set of the same source

Row | effect of a mutation on the interaction | Variant
2 | disrupting interaction | E1235V
